Source: patent publication US20240294610A1, “PEPTIDE FOR TREATING AGE-RELATED MACULAR DEGENERATION” (DAIICHI SANKYO COMPANY, LIMITED, priority 2016, published 2024)

Tests used:
[1] = test system: human umbilical vein endothelial cells (HUVEC); assay: HUVEC migration test; format: cell-based; conditions: 300 nM peptide in EGM growth medium; 2 hours
Protocol: HUVEC (Kurabo Industries Ltd.) was cultured for 18 hours under conditions of 37° C. and 5% CO2 in a medium (0.1% BSA-containing serum-free EGM) in which EBM™-2 basal medium (Lonza Walkersville, Inc.) containing 0.1% BSA was supplemented with EGM™-2 SingleQuots™ additive factor set except for serum and VEGF. Then, the cells were adjusted to 4×10^5 cells/mL with 0.1% BSA-containing serum-free EGM. 4×10^5 cells/mL of the HUVEC suspension was added at 50 μL/well to the upper layer of a chamber of Corning FluoroBlok HTS 96 Well Multiwell Permeable Support System with 3.0 μm High Density PET Membrane (Corning Inc.) having a gelatin-coated membrane. Then, each sample described below (medium 1, 2 or 3) was added at 210 μL/well to the lower layer of the chamber (n=3). […]
FluoroBlok HTS 96 Well Multiwell Support System supplemented with the cells and the sample was incubated for 2 hours under conditions of 37° C. and 5% CO2. […] The fluorescence intensity (excitation wavelength/fluorescence wavelength: 485 nm/535 nm) of each well was measured using a plate reader (ARVO-MX, PerkinElmer, Inc.), and the migrated cells were counted for each well according to the following expression.
Migrated cells=Mean fluorescence intensity of wells containing HUVEC (n=3)−Mean fluorescence intensity of blank wells (n=3).

[2] = test system: retinal damage induced by light exposure; assay: Rat model of retinal damage induced by light exposure; format: in vivo
Protocol: Rat models of retinal damage induced by light exposure are models that induce the cell death of retinal photoreceptor cells by light exposure and are universally used as model animals of retinal degeneration (Daniel T. Organisciak et al., (1996) Invest Ophthalmol Vis Sci. Vol. 37 (No. 11): p. 2243-2257). A 0.5% (W/V) tropicamide-0.5% phenylephrine hydrochloride ophthalmic solution was ocularly instilled under adaptation to darkness to rats adapted to darkness for 72 hours. Then, the rats were exposed to white light of 5500 Lux for 3 hours. The rats thus exposed were adapted again to darkness for about 24 hours and then raised for 2 days under light-dark conditions of ordinary raising. After euthanasia, the eyeballs were excised and fixed by dipping in a 3.7% (W/V) formaldehyde-0.5 to 1% (W/V) methanol-0.2% (W/V) picric acid fixative for 24 hours or longer. After paraffin embedding, thin sliced sections were prepared. The sections were stained with hematoxylin-eosin, and a nucleus count in an outer nuclear layer at the cross-section of the retina was determined to evaluate retinal damage. […] Immediately before light exposure of rats, 5 micro L of HTRA1-inhibiting peptide […] having a concentration of 0.04 mg/mL or 0.2 mg/mL was intravitreally administered under anesthesia. n=4 for a normal saline administration group, and n=5 for the other groups. […] The retinal protective effects of three HTRA1-inhibiting peptides prepared in Example 6 were evaluated using the rat models of retinal damage induced by light exposure, constructed in Example (5-1). The operation followed Example 5. n=6 for all groups.

ARPE-19 cells = assay: VEGF mRNA induction test using human retinal pigment epithelial cell ARPE-19; format: cell-based; conditions: H2O2 500 μM, normal human serum complement 25%, HTRA1 1 μM, peptide 1 μM, 4 hours
Protocol: ARPE-19 cells were cultured until confluent in 12 mm Transwell with 0.4 μm Pore Polyester Membrane Insert, Sterile (Corning Inc.) under conditions of 37° C. and 5% CO2 using a DMEM/F-12 medium (Wako Pure Chemical Industries, Ltd.) containing 10% fetal bovine serum (FBS) and penicillin-streptomycin (Thermo Fisher Scientific Inc.). Then, the cells were cultured in FBS-free DMEM/F-12 for 5 days. H2O2 (final concentration: 500 μM) was added to the upper and lower layers of the chamber, and normal human serum complement (Quidel Corp.) (final concentration: 25%) was added to the upper layer of the chamber. […] Four hours later, the culture supernatant was removed, and the cells were washed with PBS. Then, mRNA was extracted using SuperPrep™ Cell Lysis & RT Kit for qPCR (Toyobo Co., Ltd.) and subjected to reverse transcription reaction. The mRNA level of VEGF was quantitatively analyzed by TaqMan Gene Expression Assays (Hs000900055_m1 and Hs02786624_g1; Thermo Fisher Scientific Inc.) using 7900HT Fast Real-Time PCR System (Applied Biosystems, Inc.). GAPDH was used in the correction of the mRNA level.

RPE cells = assay: Rabbit retinal damage model by loading with high-fat diet containing hydroquinone (HFD-HQ); format: in vivo; conditions: HFD-HQ-loaded 3-year-old rabbits; 50 μL of 40 mg/mL intravitreally after 2 months of feeding; evaluated after 4 months
Excerpt: Retinal damage models prepared using high-fat diet (HFD) and hydroquinone (HQ) are models in which oxidative stress is induced by a pro-oxidant to cause retinal damage. These models have been reported only for mice (Diego G. Espinosa-Heidmann et al., (2006) Invest Ophthalmol Vis Sci., Vol. 47 (No. 2): p. 729-737). Accordingly, 3-year-old JW rabbits were fed for 4 months with RC4 (Oriental Yeast Co., Ltd.) diet containing 1.5% (W/V) coconut oil-0.25% (W/V) cholesterol-1.5% (W/V) peanut oil-2.4% (W/V) hydroquinone (HFD-HQ) to construct rabbit retinal damage models. After euthanasia, the eyeballs were excised, and the anterior segment of the eye was removed by an external incision of about 5 mm from the corneal limbus. The vitreous body was further separated. Then, retina-choroid-sclera was fixed by dipping in 4% (W/V) paraformaldehyde fixative for 24 hours or longer. […] The stained choroid was observed under a fluorescence microscope (BZ-9000; Keyence Corp.). The area of stained retinal pigment epithelial (RPE) cells was determined to evaluate RPE cell damage.
The retinal protective effect of the HTRA1-inhibiting peptide H308 prepared in Example 1 was evaluated using the rabbit models. […]
After 4 months from the start of feeding, RPE cell hypertrophy in the model animals was evaluated. […]

HTRA1 (cat) = target: T1, HTRA1 (cat) (Homo sapiens, UniProt Q92743); assay: HTRA1 (cat) inhibitory activity using peptide substrate H2-Opt (Example 3-1); format: biochemical; conditions: method of (3-1); peptide 1.875 to 1,000 nM
T1 construct: The protease domain (158Gly to 373Lys), except for the N-terminal domain and the PDZ domain, of human HTRA1 (Q92743); made in house; host or cells: E. coli BL21 (DE3)
T1 sequence (Q92743 158-373): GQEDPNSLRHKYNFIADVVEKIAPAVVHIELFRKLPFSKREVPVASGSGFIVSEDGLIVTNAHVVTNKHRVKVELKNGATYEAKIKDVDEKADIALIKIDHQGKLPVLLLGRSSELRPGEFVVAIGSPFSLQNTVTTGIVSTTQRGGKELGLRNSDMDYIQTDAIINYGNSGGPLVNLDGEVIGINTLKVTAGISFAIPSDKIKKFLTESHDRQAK
Protocol: The protease domain (158Gly to 373Lys), except for the N-terminal domain and the PDZ domain, of human HTRA1 (Q92743) was used as HTRA1 (cat) to construct a HTRA1 (cat) expression vector. The desired DNA fragment was amplified by PCR ((94° C. for 15 sec, 60° C. for 30 sec, and 68° C. for 45 sec)×30 cycles) with a human HTRA1-inserted plasmid (GeneCopoeia, Inc.; GC-M0558) as a template using the following primers and KOD-plus-(Toyobo Co., Ltd.).
A substrate peptide H2-Opt (Mca-IRRVSYSFK(Dnp)K) (Peptide Institute, Inc.: SEQ ID NO: 54, FIG. 8) was dissolved at 10 mM in DMSO, diluted with an assay buffer (50 mM borate and 150 mM NaCl, pH 8.5), and used at a final concentration of 10 μM. HTRA1 (HTRA1 (cat) or HTRA1 (full)) and each HTRA1-inhibiting peptide diluted with an assay buffer were mixed at 25 μL each and reacted at 37° C. for 20 minutes. Then, 50 μL of the substrate diluted with an assay buffer was added thereto. A fluorescent signal (excitation at 328 nm/emission at 393 nm) was measured using Enspire (PerkinElmer, Inc.). […]
The substrate peptide decomposition rate of the HTRA1-inhibiting peptide at each concentration was calculated. When the decomposition rate at an inhibitor concentration of 0 nM was defined as 100%, the HTRA1 (cat) and HTRA1 (full) inhibitory activity of each HTRA1-inhibiting peptide was evaluated (FIGS. 2 and 3).

B1: H308_D1G_S16A: H308 derivative, 1Asp substituted by Gly and 16Ser by Ala, SEQ ID NO: 24 (FIG. 36) (protein)
chain: GPQFGLFSKYRTPNCADHAGMACVALYEPVCGSDMSTYENECVLCMKIREGGHNIKIIRNGPCGG
modifications: peptide H308_D1G_S16A
With B1 the “migration of HUVEC induced in the serum-containing medium” value [1] was “suppressive effect on the migration of HUVEC”, the “nucleus count in an outer nuclear layer at the cross-section of the retina” value (“nucleus count in an outer nuclear layer” for short) ([2]; 0.2 and 1 μg/eye, n=6) was “suppressed decrease in nucleus count in an outer nuclear layer” and the “expression of VEGF mRNA” value (ARPE-19 cells) was “confirmed to suppress the expression of VEGF”.

B2: H308: SPINK2 mutant HTRA1-inhibiting peptide, amino acid sequence SEQ ID NO: 9 (FIG. 21) (protein)
chain: DPQFGLFSKYRTPNCSDHAGMACVALYEPVCGSDMSTYENECVLCMKIREGGHNIKIIRNGPCGG
modifications: peptide H308
For B2, the “hypertrophy of RPE cells, average area” value (RPE cells) was “exhibited a suppressive effect on the hypertrophy of RPE cells”, the “hypertrophy of RPE cells, number of RPE cells having a cell area of 1500 μm^2 or larger” value (RPE cells) was “exhibited a suppressive effect on the hypertrophy of RPE cells” and the “nucleus count in an outer nuclear layer” value ([2]; 5 micro L of 0.04 mg/mL or 0.2 mg/mL intravitreally immediately before light exposure) was “effect of suppressing decrease in nucleus count in an outer nuclear layer was confirmed”.

B3: H321AT_D1G_S16A: peptide derivative, amino acid sequence SEQ ID NO: 28 (FIG. 40) (protein)
chain: GPQFGLFSKYRTPNCADFDGMACYAFYEPVCGSDMSTYANECTLCMKIREGGHNIKIIRNGPCGG
modifications: peptide H321AT_D1G_S16A
In the case of B3, the “nucleus count in an outer nuclear layer” value ([2]; 0.2 and 1 μg/eye, n=6) is reported as “suppressed decrease in nucleus count in an outer nuclear layer”.

B4: H322AT_D1G_S16A: peptide derivative, amino acid sequence SEQ ID NO: 29 (FIG. 41) (protein)
chain: GPQFGLFSKYRTPNCAQHEGMACYALYEPVCGSDMSTYANECTLCMKIREGGHNIKIIRNGPCGG
modifications: peptide H322AT_D1G_S16A
For B4, the “nucleus count in an outer nuclear layer” value ([2]; 0.2 and 1 μg/eye, n=6) was “suppressed decrease in nucleus count in an outer nuclear layer”.

B5: wild-type SPINK2: human serine protease inhibitor Kazal-type 2, control, amino acid sequence SEQ ID NO: 1 (FIG. 13) (protein, listed as Homo sapiens)
chain: DPQFGLFSKYRTPNCSQYRLPGCPRHFNPVCGSDMSTYANECTLCMKIREGGHNIKIIRNGPC
B5 was tested, and the “HTRA1 (cat) inhibitory activity (decomposition rate of peptide substrate)” value (HTRA1 (cat)) was “no HTRA1 inhibitory activity”.
